Measurements reported in US20230265407A1, “HUMAN RECOMBINANT ACE2-FC MUTANTS THAT DECOUPLE ANTI-SARS-COV-2 ACTIVITY FROM CARD[…]” (Northwestern University, priority 2020, published 2023).
“Also recorded” adds a separate entry of the source. Read-outs that look alike come from different tables or passages of the source.

Tests used:
ACE2 = ACE2 (Homo sapiens, UniProt Q9BYF1); conditions: cited from earlier work
[1] = tested on: Spike (SARS-CoV-2) pseudotyped lentivirus; format: cell-based
apelin-13 [2] = test: Phenylalanine Assay: ACE2 peptidase activity with apelin-13 as substrate; conditions: phenylalanine hydrolysis, 20 min, 37° C.
Protocol: (§1) ACE2 peptidase activity measured using physiological substrates of AngII and apelin-13. […] It involves two coupled reactions, hydrolysis of the C-terminus phenylalanine residues from the substrates by ACE2 catalysis and the measurement of free amino acid phenylalanine using yeast enzyme of phenylalanine ammonia lyase (PAL) in a colorimetric assay (supplementary Figure S2).
(§2) The reactions were carried out using indicated concentrations of ACE2-Fc proteins together with either AngII or apelin-13 at indicated concentrations in reaction buffer containing 20 mM Tris-HCl, pH=7.4, 136 mM NaCl and 10 μM ZnC12. The first reaction was proceeded at 37° C. after 20 min before stopped by 80° C. heat inactivation for 5 min. The second reaction used a phenylalanine detection kit (Sigma-Aldrich, St. Louis, Mo.). 1 μL enzyme mix and 1 μL developer from the kit were added to the above reaction, which was allowed to proceed for 20 min at room temperature. Fluorescence intensity was measured at 535 nm excitation and 585 nm emission wavelength, and all reactions were performed in triplicate.
(§3) We performed Mca-APK(Dnp) measurements, alongside phenylalanine hydrolysis assays using AngII and apelin-13 as substrates to determine the enzymatic activities of the ACE2-Fc variants (FIG. 2A-C). […] The first method used an excess amount of the enzyme (100 ng) in reactions with varying concentrations of the three substrates. This would potentially detect low partial activity of enzymes.

[3] = tested on: Mca-APK(Dnp) surrogate fluorogenic substrate; conditions: 20 min reaction, compared with wild-type ACE2-Fc
Protocol: ACE2 peptidase activity measured using surrogate Mca-APK(Dnp). ACE2-Fc peptidase activity assay using surrogate fluorogenic substrate Mca-APK(Dnp) (Enzo Life Sciences, Farmingdale, N.Y.) was performed in black microtiter plates. The reaction buffer contained 50 mM 4-morpholineethanesulfonic acid, pH=6.5, 300 mM NaCl, 10 μM ZnC12, 0.01% Triton X-100 and 20 μM of Mca-APK(Dnp). The total reaction volume was 100 μL at room temperature and the duration of the reactions were 20 min. Peptidase activities were calculated as fluorescence intensity at 320 nm excitation and 420 nm emission wavelength.
In parallel, we performed ACE2 activity assays using either Mca-APK(Dnp) or synthetic Ang II peptide as substrate together with individual variants of ACE2-Fc as the enzyme. By using Mca-APK(Dnp), fluorescence signals at 328 nm excitation and 393 nm emission were recorded.

AngII = test: Phenylalanine Assay: ACE2 peptidase activity with AngII as substrate; conditions: phenylalanine hydrolysis, 20 min, 37° C.
Protocol: as §1, §2, §3

Ang II = test: Mass spectrometry analysis of peptides generated from Ang II by ACE2-Fc; conditions: Ang II peptide as substrate
Mca-APK(Dnp) = conditions: cited from earlier work
angiotensin II = angiotensin II (Homo sapiens, UniProt Q9BYF1); conditions: cited from earlier work
apelin-13 [4] = target: apelin-13 (Homo sapiens, UniProt Q9BYF1); conditions: cited from earlier work
dynorphin-13 = dynorphin-13 (Homo sapiens, UniProt Q9BYF1); conditions: cited from earlier work
angiotensin I = angiotensin I (Homo sapiens, UniProt Q9BYF1); conditions: cited from earlier work
[5] = mice, up to two months; cited from earlier work
[6] = degradation of AngII by the fusion; cited from earlier work
[7] = target: RBD of SARS-CoV-2 spike protein (Severe acute respiratory syndrome coronavirus 2, UniProt P0DTC2)

Chain of ACE2 (Q9BYF1 18-805): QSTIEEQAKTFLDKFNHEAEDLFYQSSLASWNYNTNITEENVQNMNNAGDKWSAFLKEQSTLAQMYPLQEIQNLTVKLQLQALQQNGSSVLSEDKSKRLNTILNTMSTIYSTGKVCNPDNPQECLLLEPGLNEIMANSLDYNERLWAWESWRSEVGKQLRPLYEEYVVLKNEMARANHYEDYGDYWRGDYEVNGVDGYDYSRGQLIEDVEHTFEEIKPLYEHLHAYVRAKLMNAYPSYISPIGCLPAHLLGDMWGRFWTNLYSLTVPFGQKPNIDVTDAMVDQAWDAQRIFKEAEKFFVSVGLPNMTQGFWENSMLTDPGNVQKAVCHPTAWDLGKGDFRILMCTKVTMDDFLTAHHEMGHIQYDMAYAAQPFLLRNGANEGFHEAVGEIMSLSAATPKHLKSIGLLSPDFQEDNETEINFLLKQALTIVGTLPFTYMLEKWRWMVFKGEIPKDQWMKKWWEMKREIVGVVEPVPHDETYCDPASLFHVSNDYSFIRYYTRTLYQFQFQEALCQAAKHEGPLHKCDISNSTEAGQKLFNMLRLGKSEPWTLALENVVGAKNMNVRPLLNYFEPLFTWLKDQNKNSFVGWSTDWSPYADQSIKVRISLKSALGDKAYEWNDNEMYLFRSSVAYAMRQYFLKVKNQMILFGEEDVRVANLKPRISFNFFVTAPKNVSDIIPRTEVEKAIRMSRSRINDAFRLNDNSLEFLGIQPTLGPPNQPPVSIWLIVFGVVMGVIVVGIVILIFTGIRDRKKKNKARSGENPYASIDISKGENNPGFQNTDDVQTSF
Chain of angiotensin II (Q9BYF1 18-805): as above
Chain of dynorphin-13 (Q9BYF1 18-805): as above
Chain of apelin-13 (Homo sapiens, UniProt Q9BYF1) (Q9BYF1 18-805): as above
Chain of angiotensin I (Q9BYF1 18-805): as above

O=C(O)CN(CCN(CC(=O)O)CC(=O)O)CC(=O)O [EDTA]
inhibition of ACE2 (ACE2): inhibited

CC(C)C[C@H](N[C@@H](Cc1cncn1Cc1cc(Cl)cc(Cl)c1)C(=O)O)C(=O)O [MLN-4760]
inhibition of ACE2 (ACE2): inhibited

C[C@H](CS)C(=O)N1CCC[C@H]1C(=O)O [captopril]
inhibition of ACE2 (ACE2): not

NCCCC[C@H](N[C@@H](CCc1ccccc1)C(=O)O)C(=O)N1CCC[C@H]1C(=O)O [linosipril]
inhibition of ACE2 (ACE2): not

E402A: ACE2-Fc fusion with single alanine substitution of Zn2+-binding residue Glu402; loss-of-activity variant
IC50 of pseudotyped viral transduction [1]: 0.25 µg/mL | inhibition of pseudotyped viral transduction (in words) [1]: could suppress the transduction of a pseudotyped virus | peptidase activity toward apelin-13 (Phe release) (apelin-13 [2]): inactivate ACE2; also recorded: completely lost their enzymatic activity | peptidase activity toward apelin-13 (Phe release) (apelin-13 [2]; listed as Glu402Ala): completely lack of peptidase activity | peptidase activity toward surrogate substrate Mca-APK(Dnp) [3]: completely lost their enzymatic activity | peptidase activity toward surrogate substrate Mca-APK(Dnp) ([3]; listed as Glu402Ala): completely lack of peptidase activity | peptidase activity toward AngII (Phe release) (AngII): inactivate ACE2; also recorded: completely lost their enzymatic activity | peptidase activity toward AngII (Phe release) (AngII; listed as Glu402Ala): completely lack of peptidase activity

H345A: ACE2-Fc fusion with single alanine substitution of His345
generation of Ang 1-7 from Ang II by mass spectrometry (Ang II): full activity; also recorded: remained fully active | generation of Ang 1-7 from Ang II by mass spectrometry (Ang II; listed as ACE2-Fc H345A): full activity

H345L: Glasgow et al. ACE2 trap with H345L mutation at the catalytic center
activity against Mca-APK(Dnp) (Glasgow et al.) (Mca-APK(Dnp)): loss-of-activity

H374N/H378N: Glasgow et al. ACE2 trap with double mutations of the Zn2+-binding residues
activity against Mca-APK(Dnp) (Glasgow et al.) (Mca-APK(Dnp)): loss-of-activity

H378A: ACE2-Fc fusion with single alanine substitution of Zn2+-binding residue His378; loss-of-activity variant
IC50 of pseudotyped viral transduction [1]: 0.16 µg/mL | inhibition of pseudotyped viral transduction (in words) [1]: could suppress the transduction of a pseudotyped virus | peptidase activity toward apelin-13 (Phe release) (apelin-13 [2]): inactivate ACE2; also recorded: completely lost their enzymatic activity | peptidase activity toward apelin-13 (Phe release) (apelin-13 [2]; listed as His378Ala): completely lack of peptidase activity | peptidase activity toward surrogate substrate Mca-APK(Dnp) [3]: completely lost their enzymatic activity | peptidase activity toward surrogate substrate Mca-APK(Dnp) ([3]; listed as His378Ala): completely lack of peptidase activity | peptidase activity toward AngII (Phe release) (AngII): inactivate ACE2; also recorded: completely lost their enzymatic activity | peptidase activity toward AngII (Phe release) (AngII; listed as His378Ala): completely lack of peptidase activity

R273A
IC50 of pseudotyped viral transduction [1]: 0.19 µg/mL | inhibition of pseudotyped viral transduction (in words) [1]: could suppress the transduction of a pseudotyped virus | generation of Ang 1-7 from Ang II by mass spectrometry (Ang II): loss of activity | generation of Ang 1-7 from Ang II by mass spectrometry (Ang II; listed as ACE2-Fc R273A): no Ang 1-7 signal was observed

angiotensin converting enzyme 2 [ACE2]
Km (angiotensin II): 2 µM | Km (apelin-13 [4]): 6.8 µM | Km (dynorphin-13): 5.5 µM | Km (angiotensin I): 6.9 µM

wild-type ACE2-Fc: ectodomain of human ACE2 fused to the N-terminus of Fc domain of human IgG1; forms a dimer
tolerability of repeated doses [5]: well tolerated | blood pressure control [6]: blood pressure control for up to two weeks | binding to SARS-CoV-2 spike RBD [7]: highest binding affinity
